Patent US20230052369A1 (Zymeworks, published 2023)
Changes are numbered by the printed parent chain.

B1: v23658 (bispecific antibody, human IgG1, kappa, L234A L235A)
heavy 1: QVQLKESGPGLVAPSQSLSITCTVSGFSLTSYAINWVRQPPGKGLEWLGVLWPGGGTNYNSALKSRLSISKDNSKSQVFLKMNSLQTDDTARYYCARGSGTWYFDVWGAGTTVTVSSASTKGPSVFPLAPSSKSTSGGTAALGCLVKDYFPEPVTVSWNSGALTSGVHTFPAVLQSSGLYSLSSVVTVPSSSLGTQTYICNVNHKPSNTKVDKKVEPKSCDKTHTCPPCPAPEAAGGPSVFLFPPKPKDTLMISRTPEVTCVVVSVSHEDPEVKFNWYVDGVEVHNAKTKPREEQYNSTYRVVSVLTVLHQDWLNGKEYKCKVSNKALPAPIEKTISKAKGQPREPQVYVYPPSRDELTKNQVSLTCLVKGFYPSDIAVEWESNGQPENNYKTTPPVLDSDGSFALVSKLTVDKSRWQQGNVFSCSVMHEALHNHYTQKSLSLSPGGGGGDIVMTQTPASVEAAVGGTVTIKCQASQSIYSSLAWYQQKPGQSPKLLIYDASHLASGVPSRFSGSRYGTEFTLTISGVQCDDAATYYCQGGWYSSAATYVPNTFGGGTEVVVKGGGGSGGGGSGGGGSQEQLVESGGGLVQPEGSLTLTCKASGFTISNNYYMCWVRQAPGKGLEWIACIYGGISGRTYYASWAKGRFTISKTSSTTVTLQMTSLTAADTATYFCVRGYVGTSNLWGPGTLVTVSS
heavy 2: QVQLKESGPGLVAPSQSLSITCTVSGFSLTSYAINWVRQPPGKGLEWLGVLWPGGGTNYNSALKSRLSISKDNSKSQVFLKMNSLQTDDTARYYCARGSGTWYFDVWGAGTTVTVSSASTKGPSVFPLAPSSKSTSGGTAALGCLVKDYFPEPVTVSWNSGALTSGVHTFPAVLQSSGLYSLSSVVTVPSSSLGTQTYICNVNHKPSNTKVDKKVEPKSCDKTHTCPPCPAPEAAGGPSVFLFPPKPKDTLMISRTPEVTCVVVSVSHEDPEVKFNWYVDGVEVHNAKTKPREEQYNSTYRVVSVLTVLHQDWLNGKEYKCKVSNKALPAPIEKTISKAKGQPREPQVYVLPPSRDELTKNQVSLLCLVKGFYPSDIAVEWESNGQPENNYLTWPPVLDSDGSFFLYSKLTVDKSRWQQGNVFSCSVMHEALHNHYTQKSLSLSPG
light: DIQMTQTTSSLSASLGDRVTFSCSASQGISNYLNWYQQKPDGTVKLLIYYTSSLHLGVPSRFSGSGSGTDYSLTISNLEPEDIATYYCQQYSKLPWTFGGGTKLEIKRTVAAPSVFIFPPSDEQLKSGTASVVCLLNNFYPREAKVQWKVDNALQSGNSQESVTEQDSKDSTYSLSSTLTLSKADYEKHKVYACEVTHQGLSSPVTKSFNRGEC
notes: also called 4E6 x 8K22 (VLVH) 2x1
B2: v23657 (bispecific antibody, human IgG1, kappa, L234A L235A)
heavy 1: QVQLKQSGPGLVQPSQSLSITCTVSGFSLTSYGVHWVRQSPGKGLEWLGVIWSGGSTDYNAAFISRLSISKDNSKSQVFFKMNSLQADDTAIYYCARNPLTATVMDYWGQGTSVTVSSASTKGPSVFPLAPSSKSTSGGTAALGCLVKDYFPEPVTVSWNSGALTSGVHTFPAVLQSSGLYSLSSVVTVPSSSLGTQTYICNVNHKPSNTKVDKKVEPKSCDKTHTCPPCPAPEAAGGPSVFLFPPKPKDTLMISRTPEVTCVVVSVSHEDPEVKFNWYVDGVEVHNAKTKPREEQYNSTYRVVSVLTVLHQDWLNGKEYKCKVSNKALPAPIEKTISKAKGQPREPQVYVYPPSRDELTKNQVSLTCLVKGFYPSDIAVEWESNGQPENNYKTTPPVLDSDGSFALVSKLTVDKSRWQQGNVFSCSVMHEALHNHYTQKSLSLSPGGGGGDIVMTQTPASVEAAVGGTVTIKCQASQSIYSSLAWYQQKPGQSPKLLIYDASHLASGVPSRFSGSRYGTEFTLTISGVQCDDAATYYCQGGWYSSAATYVPNTFGGGTEVVVKGGGGSGGGGSGGGGSQEQLVESGGGLVQPEGSLTLTCKASGFTISNNYYMCWVRQAPGKGLEWIACIYGGISGRTYYASWAKGRFTISKTSSTTVTLQMTSLTAADTATYFCVRGYVGTSNLWGPGTLVTVSS
heavy 2: QVQLKQSGPGLVQPSQSLSITCTVSGFSLTSYGVHWVRQSPGKGLEWLGVIWSGGSTDYNAAFISRLSISKDNSKSQVFFKMNSLQADDTAIYYCARNPLTATVMDYWGQGTSVTVSSASTKGPSVFPLAPSSKSTSGGTAALGCLVKDYFPEPVTVSWNSGALTSGVHTFPAVLQSSGLYSLSSVVTVPSSSLGTQTYICNVNHKPSNTKVDKKVEPKSCDKTHTCPPCPAPEAAGGPSVFLFPPKPKDTLMISRTPEVTCVVVSVSHEDPEVKFNWYVDGVEVHNAKTKPREEQYNSTYRVVSVLTVLHQDWLNGKEYKCKVSNKALPAPIEKTISKAKGQPREPQVYVLPPSRDELTKNQVSLLCLVKGFYPSDIAVEWESNGQPENNYLTWPPVLDSDGSFFLYSKLTVDKSRWQQGNVFSCSVMHEALHNHYTQKSLSLSPG
light: DIVMTQSQKFMSTSVGDRVSVTCKASQNVGTNVAWYQQKPGQSRTVLIYSASYRHSGVPDRFTGSGSGTDFTLTISNVQSEDLAEYFCQQYNSYPLTFGTGTKLELKRTVAAPSVFIFPPSDEQLKSGTASVVCLLNNFYPREAKVQWKVDNALQSGNSQESVTEQDSKDSTYSLSSTLTLSKADYEKHKVYACEVTHQGLSSPVTKSFNRGEC
notes: also called 2E8 x 8K22 (VLVH) 2x1
B3: v23659 (bispecific antibody, human IgG1, kappa, L234A L235A)
heavy 1: B2 heavy 1 with K5Q, Q6E, S15T, T30I
heavy 2: B2 heavy 2 with K5Q, Q6E, S15T, T30I
light: B2 light with R44P, T45K, V46A, H55D, F87L, T100A
notes: also called 5G8 x 8K22 (VLVH) 2x1
B4: v23665 (bispecific antibody, human IgG1, kappa, L234A L235A)
heavy 1: QVQLKESGPGLVAPSQSLSITCTVSGFSLTSYAISWVRQPPGKGLEWLGVIWPGGGTNYNSALKSRLSISKDNSKSQVFLKMNSLQTDDTARYYCARGTGTWYFDVWGAGTTVTVSSASTKGPSVFPLAPSSKSTSGGTAALGCLVKDYFPEPVTVSWNSGALTSGVHTFPAVLQSSGLYSLSSVVTVPSSSLGTQTYICNVNHKPSNTKVDKKVEPKSCDKTHTCPPCPAPEAAGGPSVFLFPPKPKDTLMISRTPEVTCVVVSVSHEDPEVKFNWYVDGVEVHNAKTKPREEQYNSTYRVVSVLTVLHQDWLNGKEYKCKVSNKALPAPIEKTISKAKGQPREPQVYVYPPSRDELTKNQVSLTCLVKGFYPSDIAVEWESNGQPENNYKTTPPVLDSDGSFALVSKLTVDKSRWQQGNVFSCSVMHEALHNHYTQKSLSLSPGGGGGDIVMTQTPSSVSAAVGGTVTIKCQASQTIGSSLAWYQQKPGQPPKLLIYRASTLASGVSSRFRGSGSGTEYTLTISDLECADAATYYCQWTDYGYIYIWAFGGGTEVVVKGGGGSGGGGSGGGGSQEQLVESGGGLVQPEGSLTLTCTASKFSFSSLYYMCWVRQAPGKGLEWIACVYGGSSGNTYYASWAKGRFTISKASSTTVTLQLTSLTAADTATYFCARFDVDGSGFNLWGPGTLVTVSS
heavy 2: B1 heavy 2 with N35S, L51I, S99T
light: B1 light with F21I, L56S, K93D
notes: also called 6B3 x 1H06 (VLVH) 2x1
B5: v23661 (bispecific antibody, human IgG1, kappa, L234A L235A)
heavy 1: B4 heavy 1 with S31T, V50I, K75R, T99A
heavy 2: B1 heavy 2 with S31T, N35S, V50I, L51I, K75R, S99A
light: B1 light with T7S, L15V, F21I, L56S, L94F
notes: also called 1C8 x 1H06 (VLVH) 2x1
B6: v23663 (bispecific antibody, human IgG1, kappa, L234A L235A)
heavy 1: B4 heavy 1 with S35N, I51L, T99S
heavy 2: B1 heavy 2
light: B1 light
notes: also called 4E6 x 1H06 (VLVH) 2x1
B7: v23664 (bispecific antibody, human IgG1, kappa, L234A L235A)
heavy 1: QVQLQESGPGLVQPTQSLSITCTVSGFSLISYGVHWVRQSPGKGLEWLGVIWSGGSTDYNAAFISRLSISKDNSKSQVFFKMNSLQADDTAIYYCARNPLTATVMDYWGQGTSVTVSSASTKGPSVFPLAPSSKSTSGGTAALGCLVKDYFPEPVTVSWNSGALTSGVHTFPAVLQSSGLYSLSSVVTVPSSSLGTQTYICNVNHKPSNTKVDKKVEPKSCDKTHTCPPCPAPEAAGGPSVFLFPPKPKDTLMISRTPEVTCVVVSVSHEDPEVKFNWYVDGVEVHNAKTKPREEQYNSTYRVVSVLTVLHQDWLNGKEYKCKVSNKALPAPIEKTISKAKGQPREPQVYVYPPSRDELTKNQVSLTCLVKGFYPSDIAVEWESNGQPENNYKTTPPVLDSDGSFALVSKLTVDKSRWQQGNVFSCSVMHEALHNHYTQKSLSLSPGGGGGDIVMTQTPSSVSAAVGGTVTIKCQASQTIGSSLAWYQQKPGQPPKLLIYRASTLASGVSSRFRGSGSGTEYTLTISDLECADAATYYCQWTDYGYIYIWAFGGGTEVVVKGGGGSGGGGSGGGGSQEQLVESGGGLVQPEGSLTLTCTASKFSFSSLYYMCWVRQAPGKGLEWIACVYGGSSGNTYYASWAKGRFTISKASSTTVTLQLTSLTAADTATYFCARFDVDGSGFNLWGPGTLVTVSS
heavy 2: B2 heavy 2 with K5Q, Q6E, S15T, T30I
light: B2 light with R44P, T45K, V46A, H55D, F87L, T100A
notes: also called 5G8 x 1H06 (VLVH) 2x1

molecular target: T1, full-length human FRα, on 293E cells (human, UniProt P15328 25-234); experiment: flow cytometry, 293E cells expressing FRα
T1 construct: also called folate receptor alpha; FOLR1
T1 sequence (P15328 25-234 limits assumed): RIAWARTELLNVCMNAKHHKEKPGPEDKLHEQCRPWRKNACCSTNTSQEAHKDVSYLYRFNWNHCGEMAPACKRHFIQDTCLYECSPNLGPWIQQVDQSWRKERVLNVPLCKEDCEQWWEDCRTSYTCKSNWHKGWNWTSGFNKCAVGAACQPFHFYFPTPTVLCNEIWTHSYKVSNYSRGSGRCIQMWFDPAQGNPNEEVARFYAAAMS
Procedure: Antibodies were diluted in 50 μl FB (PBS 2% FCS) 1:3 from stock in wells of a 96 V-well plate, and cells added on top. The cells were then left on ice for 30 minutes for the antibodies to bind. The cells were then washed twice in FB, and incubated in 50 μl FB containing 2 μg/ml goat anti-human Alexa647 antibody (Jackson Immunoresearch). The cells were then left on ice for a further 20 minutes, washed twice in FB, resuspended in 100 μl FB and analyzed on a BD Fortessa™ X20. The subsequent data files were analyzed using FlowJo™ and Prism 7 (GraphPad).

| Binder | binding result |
| --- | --- |
| B1 | binds |
| B2 | binds |
| B3 | binds |
| B4 | binds |
| B5 | binds |
| B6 | binds |
| B7 | binds |

molecular target: T2, purified human monomeric 4-1BB (human, UniProt Q07011 24-186); experiment: SPR, Ab captured, monomeric 4-1BB injected
T2 construct: the assay used the 4-1BB part released by Factor Xa with the Fc removed; also called h4-1BB; human 4-1BB
T2 sequence (Q07011 other isoform, or with tags, fused parts or gaps limits assumed): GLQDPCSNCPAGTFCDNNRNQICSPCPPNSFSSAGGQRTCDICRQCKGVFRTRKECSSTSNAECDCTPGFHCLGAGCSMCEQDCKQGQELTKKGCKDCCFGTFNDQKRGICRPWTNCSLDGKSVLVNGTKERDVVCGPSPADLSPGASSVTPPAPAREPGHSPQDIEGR
Procedure: The anti-human Fc surface was prepared on a CMS Series S sensorchip by standard amine coupling methods as described by the manufacturer (GE Healthcare). Briefly, immediately after EDC/NHS activation, a 25 μg/mL solution of anti-human Fc in 10 mM NaOAc pH 4.5 was injected at a flow rate of 10 μL/min for 420 s until approximately 2000 resonance units (RUs) were immobilized on all four flow cells. The remaining active groups were quenched by a 420 s injection of 1M ethanolamine at 10 μL/min.
Antibodies for analysis were captured onto the anti-Fc surface by injecting 5 μg/mL solutions at a flow rate of 10 μL/min for 60 s. Using single-cycle kinetics, five concentrations of a two-fold dilution series of 4-1BB starting at 40 nM (for both supernatant and purified antibody runs) with a blank buffer control were sequentially injected at 40 μL/min for 180 s with a 600 s dissociation phase, resulting in a set of sensorgrams with a buffer blank reference. Experiments were performed at a constant temperature of 25° C. The anti-human Fc surfaces were regenerated to prepare for the next injection cycle by one pulse of 10 mM Glycine/HCl pH 1.5 for 120 s at 40 μL/min. Blank-subtracted sensorgrams were analyzed using Biacore™ T200 Evaluation Software v3.0. The blank-subtracted sensorgrams were then fit to the 1:1 Langmuir binding model.
Variants purified by SEC were assessed for binding to human 4-1BB.

| Binder | Kd [nM] |
| --- | --- |
| B1 | 499 |
| B2 | 175 |
| B3 | 208 |
| B4 | 464 |
| B5 | 535 |
| B6 | 502 |
| B7 | 220 |
